Test results taken from the nanobody polyreactivity screen of Harvey et al. (2022).

Assay: yeast display, Sf9 membrane polyspecificity reagent, FACS + sequencing; frameworks hold sequencing errors
Method in brief: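 Sorting gates, low and high (top ~1%), were placed on anti-HA fluorescence to track expression and on streptavidin fluorescence to track reagent binding. A clone's polyreactivity label is taken from the gate it came out of. The reagent was 10% biotinylated, detergent-solubilized Sf9 membrane, applied for 1 hour at 4 °C to galactose-induced yeast display cells.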

Sequence	polyreactivity (PSR sort gate)
QVQLEESGGGLVQAGGSLRLSCAASGSIFSYYVMGWYRQAPGKERELVARNSKRGVTTYYADSVKGRFTISRDNAKNTVYLQMNSLKPEDTAVYFCAASVWRDRIYRYEYWGQGTQVTVSS	high polyreactivity
QVQLVESGGGLVQAGGSLRLSCAASGLTFPWYAMGWYRQAPGKERELVASINSSTGSTYYADSVKGRFTISRDNAKNTVYLQMNSLKPEYTAVYYCAAVEYGNMDWGQGTQVTVSS	low polyreactivity
QVQLVESGGGLVQAGGSIRLSCAASGRILYGNAMGWYRQAPGKEREFVAAITFRGGSTYYADSVKGRFTISRDNAKNTVYLQMNSLKPEDTAVYYCNARGHCGWGTSMYYWGQGTQVTVSS	high polyreactivity
QVQLVESGGGLVQAGGSLRLSCAASGSTFGWYAMGWYRQAPGKERELVAAIRRTGSTYYADSVKGRFTISRDNAKNTVYLQMNSLKPEDTAVYYCNAKYPLYLTGYDYWGQGTQVTVSS	low polyreactivity
QVQLVESGGGLVQAGGSLRLSCAASGRTFIGYAMGWYRQAPGKERELVATISVSGGSTYYADSVKGRFTISRDNAKNTVYLQMNSLTPVDTAVYYCADDPRYLQSWRGEFAGESWGQGTQVTVAS	low polyreactivity
QGQLGDSGGGLVQAGGSLRLSCAASGLTFWGKVMGWSRPAPGKERELVAAITSGGSTYYADSVKGRFTISRDNAKNTVFLQMNSQKPEDTAVYYCATAFYYSYSEYYYWGQGTQVTVSS	high polyreactivity
QVQLVESGGGLVQAGGSLRLICAASGGIFYSNARGWYRQAPGKERDFVAAITRSGTSTYYADSVKGRITISRDNAKNTVYLQMNSLKPVDTAVYYCAADYRYRRYRGHVSKLYYWGQGTQVTVSS	low polyreactivity
QVQLVESGGGLVQAGGRLRLSCAASGSTFPKYAMGWYRQAPGKERELVASISVTTGSTYYADSVKGRFTISRDNAKNTVYLQMNSLKPEDTAVYYCAKRTYSRKFRGAYNYWGQGTQVTVSS	high polyreactivity
QVQLVESGGGLVHAGGSLRLSCAASGFTFKENAMGWSRPAPGKERELVAAISSTGGSTYYADSVKGRFTISRDNATNNVYLQMHSLNPDDTAVYYCAASTYWYDGDYWGQGTQVTVSS	high polyreactivity
QVQLVESGGGLVQAGGRLRLSCAASGRIFGYYAMGWYRQAPGKERELVAAISYRGGTTYYADSVKGRFTISRDNAKNTVYLQMNSLKPEDTAVYYCAAAAKSGLDYWGQGTQVTVSS	high polyreactivity
QVQLVESGGGLVQAGGSLRLSCAASGFTFYTYTMGWYRQAPGKERELVAVISRSGGSTYYADSVKGLFTISRDNAKNTVYLQMNSLNPEDTAVYYCNAGYWRFIDSFDYWGQRTQVTVSS	high polyreactivity
QVQLVESGGGLVQAGGSLRLSCAASGSIFDYNTMGWYSQAPGKERELVAAISSGGSTYYADSVKGRFTISRDNAKTTVYLQMKSLKPEDTAVYYCAARRAGWWGFYYWGQGTQVTVSS	high polyreactivity
QVQLVESGGGLVQAGGSLRLSCAASGSTFIWNGIVWSRQAPGNEREWVAAITSSSTNYADSVKGRFTISRDNANNTVYVQMNSLKPEDTAVYYCAAEIYPLGSLRLGPGEYDHWGQGTQVTVSS	low polyreactivity
QVQLVESGGGLVQAGGSLRLSCAASGRIFGGYAMGWYRQAPGKERELVAAISSGGNTKYADSVKGRFTISRDNAKNTVYLQMNSLKPEDTAVYYCAAAPYARREYEYWGQVTQVTVSS	high polyreactivity
QVQLVESGGGLVQAGGSLRLSCAASGLTFVVYAMGWYRQATGKERELVASITSSGGRTYYADSVKGRFTISRDNAKNTVYLQMTSLKPEDTAVYYCAAVRRRTRYGYRYDYWGQGTQVTVSS	high polyreactivity
QVQLVESGGGLVQAGGSLRLSCDASGSILGTYALGWSRQAPGKERELVAAISSSGRTSYADSVKGRFTISRDNAKNTVYLQMNSLKPEDTAVYYCIASNYIVLINDPDAAPWLYDYWGQGTQVTVSS	low polyreactivity

Sequence	polyreactivity (PSR sort gate)
HVQLVESGGGLVQAGGSLRLSCAASGRSLSDYAMGWYRQAPGKERELVATITSGDSTNYADSVKGRFTISRDNEKNTVYLQMNSLKPEDTEVYYCNADRFADYDYWGQGTQVTVSS	low polyreactivity
QVQLVESGGGLVQAGGSLRLSCAASGFTYKYYAMGWYRQAPGKERELVAAITRGGDTYYADSVKGRFSISRDNAKNTVYLQMNSLKPEDTAVYYCNTASDKRAFDYWGQGTQVTVSS	low polyreactivity
QVQLVESGGGLGQAGGSLRLSCTASGRIFPYYAMGWYRQAPGKERELVAALSGRGGRTYYADSVKGRFTISRDNAKNTVYLQMNSLNPEDTAVYYCNARVQAVHYGYWGQGTQVTVSS	high polyreactivity
QVQLVDSGGGLVQAGGRLRLSCAASGRTFYRNAMGWDSQAPGKERELVAAITSGGSTYYADSVKGRFTISRDTAKNTGYLQMNSLKPEDTAVYYCAALRHALRYDYWGQGTQVTVSS	low polyreactivity
QVQLVESGGGLVQAGGSLRLSCAASGRTFFENAMGWYRQAPGKEREFVAAISYNGGSTYYADSVKGRFTISRDNAKNTVYLQMNSLKPEDTAVYYCAAEADGLRYDDNYWGQCTQVTVSS	low polyreactivity
QVQLVESGGGLVQAGGSLRLSCAASGFIFTWYDMGWYRQAPGKERELVAAISRSGGSTYYADSVKGRFTISRDNAKNTVYLQMNSLKPEDTAVYYCIVYRSKKRYGWGEDDYWGQGSQVTVSS	high polyreactivity
QVQLVESWGGLVQAGGSLRLSCDASGSTFIPKDMGWYRQAPGKERELVAAITVSGDDTYYADSVKGRFTISRDNAKNTVYIQMNILKPEVTAVYYCAAEWGLYVGQYEYCGQGTQVTVSS	low polyreactivity
QVHLVESGGGLVQAGGSLRLSCAASGIIFVLYTMGWYRQAPGKERELVATINWGGGNTYYADSLKGRFTISRDNAKNTVYLQMNSLKPEDTAVYYCAAAYTWYGYSQAYYYWGQGTQVTVSS	low polyreactivity
QVQLVEAGGGLVQAGVSLRLSCAASGIIFGSYAMGWYRQAPGKERELVATISYDGGSTYYADSVKGRFTISRDNAKNTVYLQMKSLKPDDTAVSYCAAVYQSWFGLRSYYYWGQGTQVTVSS	high polyreactivity
QVQLVESRGGLVQAGGSLRLSCAASGSIFSYYPMGWYRQAPGKERELVAAISSRGGSTYYADSVKGRFTISRDNAKNTFYLQMNCLKPEDTAVYYCDDEWTSWFGVTYDYWGQGTQVTVSS	high polyreactivity
QVQLVESCGGLVQAGGSLRLSCAASGFIFTYYVMGWYRQAPGKERELVATISISDGTTYADSVKGRFTISRDNAKNTVYLQMNSLKPEDTAVYYCAADNSFTDNYWGQGTQVTVSS	low polyreactivity
QVQLEEAGGGLVQAGGSLRLSCAASARIIARYAMGWYRQAPGKERELVAAITGSGGSTYYADSVKGLFTISRDHANNTVYLQMNCLKPEDTAVYYCAARSVYTYYRLDYWGQGTQVTVSS	high polyreactivity
QVQLVESGGGLVQAGGILRLSCAASGRTFGRNAMGWYRQAPGKERELVARITSGGSTSYADSVKGRFTISRDNAKNTVYLQMNSLKPEDTAVYYCAKGSYGVAYFTHTARYYGGYEYWGQGTQVTVSS	high polyreactivity
QVQLVDSGGGLVQAGGSLRLSCAASGSIFRPYARGWYRQAPWKERELVASIRWYDGSTYYADSVKGRFTSSRDNAMNTVYLQMNSLKPEDSAVYYCAADYYSQLAGIFDYWGQGTQVTVSS	low polyreactivity
QVQLVESGGGLVQAGGSLRLSCAASGLTFDSNVMRWYRQAHGKEMELVAAITSSGRTYYADSVKGRFTISRDNAKNTFYLQMNSLKPEDTAVYYCAARNLAYTRKGYYYWGQGTQVTVSS	high polyreactivity
QVQLVESGGGLVQAGGSLRLSCAASGFTFPDYAMGWYRQAPAKERELVAVITSGGSTYYADSVKGRFTISRDNAKNTVYLQMNSLKPEDTAVYYCATDFWDDDVEQRYDYWGQGTQVTVSS	low polyreactivity
